The text below walks through data of the nanobody polyreactivity screen of Harvey et al. (2022).

The nature of the data set: yeast display, Sf9 membrane polyspecificity reagent, FACS + sequencing; frameworks hold sequencing errors. A digest of the protocol: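 Galactose-induced (36–48 hours) yeast carrying a synthetic nanobody display library were exposed to 10% biotinylated, detergent-solubilized Sf9 membrane reagent at 4 °C for 1 hour. FACS followed streptavidin microbead enrichment, using low and high (top ~1%) gates for expression (anti-HA) and reagent binding (streptavidin). Colony PCR, MiSeq 2 × 250 sequencing and CDR-length filtering followed. Labels for polyreactivity reflect the gate of origin.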
Turning to “QVQLVESGGGLVQAGGSLRLSCAASGRTFVYYAMGWYRQAPGKEREFVATITSSGGSTYYADSVKGRFTISRDNAKNTVYLQMNSLKPEDTAVYYCAASPYIRYSKVSKYYYWGQGTQVTVSS”, the “polyreactivity (PSR sort gate)” value is “high polyreactivity”.

“QVQLVESGGGLVQAGGSLRLSCAASGRTFVYYAMGWYRQAPGKERELVASISSVGTTKYADSVKGRFTISRDNAKNTVYLQMNSLKPEDTAVYYCAAVPLSRNIFDSWGQGTQVTVSS”: the “polyreactivity (PSR sort gate)” value was “low polyreactivity”.

For the sequence “QVQLVESGGGLVQAGGSLRLSCAASGRTFWAYAMGWYRQAPGKERELVAAISVSGGRTYYADSVKGRFTISRDNAKYTVYLQMNSLKPEDSAVYYCNKRYLKSYQYYWGQGSQVTVSS”, the “polyreactivity (PSR sort gate)” value is “high polyreactivity”.

On to “QVQLVESGGGLVQAGGSLRLSCAASGRTFWAYAMGWYRQAPGKERELVAVIRGSGNTYYADSVKGRFTISRDNAKNTVYLQMNSLKPEDTAVYYCAASRAVTQYSGGGYWGQGTQVTVSS”, for which the “polyreactivity (PSR sort gate)” value is “high polyreactivity”.

Regarding “QVQLVESGGGLVQAGGSLRLSCAASGRTFWDYGMGWYRQAPGKERELVATISGNGGDTYYADSVKGRFTISRDNAKNTVYLQMNSLKPEDTAVYYCAADYRFYRTDRHYDYWGQGSQVTVSS”, the “polyreactivity (PSR sort gate)” value is reported as “low polyreactivity”.

Consider “QVQLVESGGGLVQAGGSLRLSCAASGRTFWENAMGWYRQAPGKERELVAAISGDSGSTYYADSVKGRFTISRDNAKNTVYLQMNSLKPEDTAVYYCAADSDRDDSYPYYYWGQGTQVTVSS”, for which the “polyreactivity (PSR sort gate)” value is listed as “low polyreactivity”.

On to “QVQLVESGGGLVQAGGSLRLSCAASGRTFWGNAMGWYRQAPGKERELVAAIRRGGRTNYADSVKGRFTISRDNAKNTVYLQMNSLKPEDTAVYYCNALYAWSWPRGYDYWGQGTQVTVSS”, for which the “polyreactivity (PSR sort gate)” value is recorded as “high polyreactivity”.

On to “QVQLVESGGGLVQAGGSLRLSCAASGRTFWGYGMGWYRQAPGKERELVATISSGGSTYYADSVKGRFTISRDNAKNTVYLQMNSLKPEDTAVYYCAARPPRTYWRYQSDYWGQGTQLTVSS”, for which the “polyreactivity (PSR sort gate)” value is “high polyreactivity”.

For “QVQLVESGGGLVQAGGSLRLSCAASGRTFWGYPMGWYRQAPGKERELVAAISSGGSTHYADSVKGRFTISRDNAKNTVYLQMNSLKPEDTAVYYCAAAVGYYAFGTYPFDDWPYDYWGQGTQVTVSS”, the “polyreactivity (PSR sort gate)” value is “high polyreactivity”.

On to “QVQLVESGGGLVQAGGSLRLSCAASGRTFWKYAMGWSRQAPGKERELVAAITDDDSTDYADSVKGRFTISRDNAKNTVYLQMTRLKPEDTAVYYCNADSSRYYRALEYWGQGTQVTVSA”, for which the “polyreactivity (PSR sort gate)” value is “low polyreactivity”.

With “QVQLVESGGGLVQAGGSLRLSCAASGRTFWNYAMGWYRQAPGKERELVAVIRFSDGSTYYADSVKGRFTISRDNAKNTVYLQMNSLKPEDTAVYYCAAKGPRRWGSGFDYWGQATQVTVSS”, the “polyreactivity (PSR sort gate)” value is reported as “low polyreactivity”.

Turning to “QVQLVESGGGLVQAGGSLRLSCAASGRTFWNYSMGWYRQAPGKERELVAVIRFSDGSTYYADSVKGRFTISRDNAKNTVYLQMNSLKPEDTAVYYCAADYSLYGWWFRNDYWGQGTQVTVSS”, the “polyreactivity (PSR sort gate)” value is given as “low polyreactivity”.

For “QVQLVESGGGLVQAGGSLRLSCAASGRTFWPYAMGWYRQAPGKERELVAAINWGGGSTYYADSVKGRFTISRDNAKNTVYLQMNSLKPEDTAVYYCAADVGRNKMDYWGQGTQVTVSS”, the “polyreactivity (PSR sort gate)” value is “low polyreactivity”.

For the sequence “QVQLVESGGGLVQAGGSLRLSCAASGRTFWPYAMGWYRQAPGKERELVARITASGGRTYYADSVKWRFTISRDNAKNTVYLQMNSLKPEDTAVYYCATSYSTRIWTWRAGDYWGQGSQVTVSS”, the “polyreactivity (PSR sort gate)” value was “high polyreactivity”.

For “QVQLVESGGGLVQAGGSLRLSCAASGRTFWRNAMGWYRQAPGKERELVAAISSSGDRTYYADSVKGRFTISRDNANNTVYLQMNSLKPEDTAVYYCAADVRYSSRFYYWGQGTQVTVSS”, the “polyreactivity (PSR sort gate)” value is listed as “high polyreactivity”.

As for “QVQLVESGGGLVQAGGSLRLSCAASGRTFWRNAMGWYRQAPGKERELVAVISVRGSSTSYADSVKGRFTISRDNAKNTVYLQMNSLKPEDTAVYYCNKASRTYGTGYDYWGQGTQVTVSS”, the “polyreactivity (PSR sort gate)” value is “high polyreactivity”.

For “QVQLVESGGGLVQAGGSLRLSCAASGRTFWSNAMGSYRQAPGKERELVAAINTSGGNTYYADSVKGRFTISRDNAKNTVYLQMNSLKPEDTAVYFCNTDGLVRNGPFYSWGQGTQVTVSS”, the “polyreactivity (PSR sort gate)” value is given as “low polyreactivity”.

“QVQLVESGGGLVQAGGSLRLSCAASGRTFWSNDMGWYRQAPGKEREFVAVISRSGSTTYYADSVKGRFTISRDNAKNTVYLQMNSRKPEDTAVYYCAADRVRSYFSRYYSTPLDYYLGQGTQVTVSS”: the “polyreactivity (PSR sort gate)” value is on record as “high polyreactivity”.

Take “QVQLVESGGGLVQAGGSLRLSCAASGRTFWSYAMGWYRQAPGKERELVAAIRTSDGITYYADSVKGRFTISRDNAKNTVYLQMNSLKPEDTAVYYCARDIRQYILYGRGDYWGQGTQVTVSS”: the “polyreactivity (PSR sort gate)” value is listed as “low polyreactivity”.

As to “QVQLVESGGGLVQAGGSLRLSCAASGRTFWTNAMGWYRQAPGKERELVAAIDRSSTSTYYADSVKGRFTISRDNAKNTVYLQMNSLKPEDTAVYYCAAENPVIVETPYGGFVGKGDSWGQGTQVTVSS”, the “polyreactivity (PSR sort gate)” value is recorded as “low polyreactivity”.

On to “QVQLVESGGGLVQAGGSLRLSCAASGRTFWTYTMGWYRQAPGKERELVAAISYSGSRTYYADSVKGRFTISRDNAKNTVYLQMNSQKPEETAVYYWATDDSDYLYRTVSAWEYDYWGQGTQVTVSS”, for which the “polyreactivity (PSR sort gate)” value is listed as “low polyreactivity”.

For the sequence “QVQLVESGGGLVQAGGSLRLSCAASGRTFWYNAMGWYRQAPRKERELVAAISSGSSTKYADSVKGRFTISRDNAKNTVYLQMNSLKPEDTAVYYCARGGWAYCPRYNYWGQGTQVTVSS”, the “polyreactivity (PSR sort gate)” value is “high polyreactivity”.

For the sequence “QVQLVESGGGLVQAGGSLRLSCAASGRTFWYSAMGWYRQAPGKEREFVAAISWSGGSTYYADSVKGRFTISRDNAKNTVYLQMNSLKPEDTAVYYCAADRYDSSQFYYWGQGTQVTVSS”, the “polyreactivity (PSR sort gate)” value is “low polyreactivity”.

Take “QVQLVESGGGLVQAGGSLRLSCAASGRTFWYYAMGWSRQAPGKERELVATITSGGSTYYADSVKGRFTISRDNAKNTVYLQMNSLKPEDTAVYYCAARKYYSRAYDYWGQGTQVTVSS”: the “polyreactivity (PSR sort gate)” value is given as “high polyreactivity”.

For the sequence “QVQLVESGGGLVQAGGSLRLSCAASGRTFWYYAMGWYRQAPGKEREFVAAISWSGGSTYYADSVKGRFTISRDNAKNTVYLQMNSLKPEDTAVYYCAADGYDSSQFYYWGQGTQVTVSS”, the “polyreactivity (PSR sort gate)” value is listed as “low polyreactivity”.

For the sequence “QVQLVESGGGLVQAGGSLRLSCAASGRTFWYYAMGWYRQAPGTERELVAAITYRGTRTYADSVKGRFTISRDNAKNTVYLQMNSQKPEDTPVYYCAKDVGYRYSGTMDYWGQGTQVTVSS”, the “polyreactivity (PSR sort gate)” value was “high polyreactivity”.

As to “QVQLVESGGGLVQAGGSLRLSCAASGRTFWYYAMGWYRQSPGKERELVAVITSGSSTYYADSVKGRFTISRDNAKNTVYLQMNSLKPEDTAVYYCNKLGRIQYDYWGQGTQVTVSS”, the “polyreactivity (PSR sort gate)” value is given as “high polyreactivity”.

As to “QVQLVESGGGLVQAGGSLRLSCAASGRTFWYYTMGWYRQAPGKERELVAAISSGGTTNYADSVKGRFTISRDNAKNTVYLQMNSLKPEDTAVYYCAARYRSYAVRLRGYDYWGQGTQVTVSS”, the “polyreactivity (PSR sort gate)” value is on record as “high polyreactivity”.

For “QVQLVESGGGLVQAGGSLRLSCAASGRTFYANAMGWYRHAPGKERELVASITGSGGRTYYADSVKGRFTISRDNAKNTVYLLMNSLKPEDTAVYYCNADPGWVYRDYEPNGLDYWGQGTQVTVSS”, the “polyreactivity (PSR sort gate)” value is on record as “low polyreactivity”.

On to “QVQLVESGGGLVQAGGSLRLSCAASGRTFYDNAMGWDRQAPGKARELVAAITQSGGRTYYADSVKGRFTISRDNAKNTGYLQMNSLKPADTAVYYCAASWPNYLYEYWGQGTQVTVSS”, for which the “polyreactivity (PSR sort gate)” value is “high polyreactivity”.

Consider “QVQLVESGGGLVQAGGSLRLSCAASGRTFYDNAMGWYRQAPGNERELVAAITVRGGSTRYADSVKGRFTISRDNAKNTVYLQLNSLKPEDTAVYYCAATQTPYRYHYDYWGQGTQVTVSS”, for which the “polyreactivity (PSR sort gate)” value was “high polyreactivity”.

With “QVQLVESGGGLVQAGGSLRLSCAASGRTFYDYAMGWYRQAHGKERELVAAIRLSGASTYYADSVKGRFTISRDNAKNTVYLQMNSLKPEDTAVYYCAARYGGRVAYRGYSYYYWGQGTQVTVSS”, the “polyreactivity (PSR sort gate)” value is “high polyreactivity”.

As for “QVQLVESGGGLVQAGGSLRLSCAASGRTFYDYAMGWYRQAPGKEREFVARITYSGGGTYYADSVKGRFTISRDNAKHTVYLQMNSLKPEDTAVYYCARPFNRYLGLTRNGYTSDYWGQGTQVTVSS”, the “polyreactivity (PSR sort gate)” value was “high polyreactivity”.

Consider “QVQLVESGGGLVQAGGSLRLSCAASGRTFYDYAMGWYRQAPGKERELVAASSRRAGSTYYADSVKGRFTISRDNAKNTVFLEMNSLKPEDTSVYYCAAAYYRRWWRGHHYAFDYWGQGSQVTVSS”, for which the “polyreactivity (PSR sort gate)” value is “high polyreactivity”.

On to “QVQLVESGGGLVQAGGSLRLSCAASGRTFYDYAMGWYRQAPGKERELVADITSGGGNTYYADSVKGRFTISRDNAKNTVYLQMNSLKPEDTAVYYCNADYDLYFSGWYDYWGQGTQVTVSS”, for which the “polyreactivity (PSR sort gate)” value is “low polyreactivity”.

Turning to “QVQLVESGGGLVQAGGSLRLSCAASGRTFYDYAMGWYRQAPGKERELVASINSDGSTYYADSVKGRFTISLDNAKNTVYLQMNSLKPEDTAVYYCAADALLYSVYYRMYGYDYWGQGTQVTVSS”, the “polyreactivity (PSR sort gate)” value is recorded as “low polyreactivity”.

“QVQLVESGGGLVQAGGSLRLSCAASGRTFYDYDMGCDRQAPGKERELVAAISGGDSTYYADSVKGRFTISRDNAKNTVYLQMNSLKPEDTAVYYCAVTPRGLPYGAYLLYYWGQGTQVTVSS”: the “polyreactivity (PSR sort gate)” value is recorded as “low polyreactivity”.

For the sequence “QVQLVESGGGLVQAGGSLRLSCAASGRTFYFNAMGWYRQAPGKERELVATITRRGGSTSYADSVKGRFTISRDNAKNTVYLQMNSLKPEDTAVYYCGNVSPPKFPERFDYWGQGTQVTVSS”, the “polyreactivity (PSR sort gate)” value is on record as “low polyreactivity”.

Consider “QVQLVESGGGLVQAGGSLRLSCAASGRTFYFYTMGWYRQAPGKERELVATINWSGTSTYYADSVKGRFTISRDNAKNTVYLQMNSLKPEDTAVYYCAVRGGRYKYGYDYWGQGSQVTVSS”, for which the “polyreactivity (PSR sort gate)” value is on record as “high polyreactivity”.

Take “QVQLVESGGGLVQAGGSLRLSCAASGRTFYGNAMGWYRQAPGKEREFVAGISWRGGRTYYADSVKGRFTISRDNAKNTVYLQMNSLKPEDTAVYYCAASAGYRGRKQYHENGYWGQGTQVTVSS”: the “polyreactivity (PSR sort gate)” value is recorded as “high polyreactivity”.
